Residue numbers refer to the chain shown, from its start. Names and notes keep the numbering of the source.
T1: EsCas13d, nuclease-dead (Eubacterium siraeum, UniProt B0MS50, R295A;H300A;R849A;H854A)
T1 sequence: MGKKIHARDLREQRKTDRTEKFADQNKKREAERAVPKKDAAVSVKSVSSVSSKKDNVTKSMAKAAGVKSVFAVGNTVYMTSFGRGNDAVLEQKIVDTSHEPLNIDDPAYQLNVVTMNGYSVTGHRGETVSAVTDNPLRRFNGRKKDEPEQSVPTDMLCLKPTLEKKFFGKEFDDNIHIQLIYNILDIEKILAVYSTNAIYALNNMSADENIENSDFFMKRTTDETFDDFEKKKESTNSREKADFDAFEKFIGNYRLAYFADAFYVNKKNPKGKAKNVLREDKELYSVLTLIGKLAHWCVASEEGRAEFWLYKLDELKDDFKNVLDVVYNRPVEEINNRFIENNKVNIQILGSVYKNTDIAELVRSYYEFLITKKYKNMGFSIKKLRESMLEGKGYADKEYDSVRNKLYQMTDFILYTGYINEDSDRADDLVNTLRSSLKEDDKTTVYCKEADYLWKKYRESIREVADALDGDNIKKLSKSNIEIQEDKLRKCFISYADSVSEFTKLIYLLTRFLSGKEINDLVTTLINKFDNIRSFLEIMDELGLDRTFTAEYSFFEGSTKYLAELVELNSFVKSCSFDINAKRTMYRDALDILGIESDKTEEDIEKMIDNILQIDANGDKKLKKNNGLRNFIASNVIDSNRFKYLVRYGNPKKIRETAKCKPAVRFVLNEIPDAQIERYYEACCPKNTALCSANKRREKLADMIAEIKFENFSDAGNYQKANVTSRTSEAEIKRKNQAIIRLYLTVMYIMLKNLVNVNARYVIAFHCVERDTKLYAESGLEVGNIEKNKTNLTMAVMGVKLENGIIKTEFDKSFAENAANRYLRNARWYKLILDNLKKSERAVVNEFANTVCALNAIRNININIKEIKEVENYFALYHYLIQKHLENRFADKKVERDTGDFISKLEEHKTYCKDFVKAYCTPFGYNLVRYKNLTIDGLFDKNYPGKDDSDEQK

B1: target 1 MT 5'PFS UGU 3'PFS UCA (mixed)
RNA 1: CACCCGUGCAAAAAUGCAGGGGUCUAAAACUGAGCGGAUAACCUCUCUAUGG
RNA 2: GGGAAUGGAUCCACAUCUACGAAUUCUGUCCAUAGAGAGGUUAUCCGCUCAUCAAGAUCGGAAGAGCACACGU
B2: target 1 MT 5'PFS ACU 3'PFS CUU (mixed)
RNA 1: B1 RNA 1
RNA 2: B1 RNA 2 with U27A, G28C, U52C, C53U, A54U
B3: target 1 MT 5'PFS GUG 3'PFS UAU (mixed)
RNA 1: B1 RNA 1
RNA 2: B1 RNA 2 with U27G, G28U, U29G, C53A, A54U
B4: target 1 MT 5'PFS UUA 3'PFS AAA (mixed)
RNA 1: B1 RNA 1
RNA 2: B1 RNA 2 with G28U, U29A, U52A, C53A
B5: target 1 MT 5'PFS UCG 3'PFS ACU (mixed)
RNA 1: B1 RNA 1
RNA 2: B1 RNA 2 with G28C, U29G, U52A, A54U
B6: target 1 MT 5'PFS UCC 3'PFS AUA (mixed)
RNA 1: B1 RNA 1
RNA 2: B1 RNA 2 with G28C, U29C, U52A, C53U
B7: target 1 MT 5'PFS AAC 3'PFS AUU (mixed)
RNA 1: B1 RNA 1
RNA 2: B1 RNA 2 with U27A, G28A, U29C, U52A, C53U, A54U
B8: target 1 MT 5'PFS GUG 3'PFS UAA (mixed)
RNA 1: B1 RNA 1
RNA 2: B1 RNA 2 with U27G, G28U, U29G, C53A
B9: target 1 MT 5'PFS CCC 3'PFS AGC (mixed)
RNA 1: B1 RNA 1
RNA 2: B1 RNA 2 with U27C, G28C, U29C, U52A, C53G, A54C
B10: target 1 MT 5'PFS GCG 3'PFS CGC (mixed)
RNA 1: B1 RNA 1
RNA 2: B1 RNA 2 with U27G, G28C, U29G, U52C, C53G, A54C
B11: target 1 MT 5'PFS GUA 3'PFS GUC (mixed)
RNA 1: B1 RNA 1
RNA 2: B1 RNA 2 with U27G, G28U, U29A, U52G, C53U, A54C
B12: target 1 MT 5'PFS UUA 3'PFS AAC (mixed)
RNA 1: B1 RNA 1
RNA 2: B1 RNA 2 with G28U, U29A, U52A, C53A, A54C
B13: target 1 MT 5'PFS UUG 3'PFS UAC (mixed)
RNA 1: B1 RNA 1
RNA 2: B1 RNA 2 with G28U, U29G, C53A, A54C
B14: target 1 MT 5'PFS GCG 3'PFS CGA (mixed)
RNA 1: B1 RNA 1
RNA 2: B1 RNA 2 with U27G, G28C, U29G, U52C, C53G
B15: target 1 MT 5'PFS GCG 3'PFS CGU (mixed)
RNA 1: B1 RNA 1
RNA 2: B1 RNA 2 with U27G, G28C, U29G, U52C, C53G, A54U
B16: target 1 U19G,A20C (mixed)
RNA 1: B1 RNA 1
RNA 2: B1 RNA 2 with U27G, G28U, U29A, A32C, U33G, U52C, A54G
B17: target 1 MT 5'PFS GUA 3'PFS GUG (mixed)
RNA 1: B1 RNA 1
RNA 2: B1 RNA 2 with U27G, G28U, U29A, U52G, C53U, A54G
B18: target 1 insC 3' of 11,insA 3' of 11 (mixed)
RNA 1: B1 RNA 1
RNA 2: GGGAAUGGAUCCACAUCUACGAAUUCGUACCAUAGAGAGGUCAUAUCCGCUCACCGAGAUCGGAAGAGCACACGU
B19: target 1 MT 5'PFS CAA 3'PFS UUA (mixed)
RNA 1: B1 RNA 1
RNA 2: B1 RNA 2 with U27C, G28A, U29A, C53U
B20: target 1 insG 3' of 11,insC 3' of 5 (mixed)
RNA 1: B1 RNA 1
RNA 2: B18 RNA 2 with C42G, A43U, U44A, A45U, U46C, C48G, G49C
B21: target 1 MT 5'PFS GGA 3'PFS CAC (mixed)
RNA 1: B1 RNA 1
RNA 2: B1 RNA 2 with U27G, U29A, U52C, C53A, A54C
B22: target 1 MT 5'PFS UUG 3'PFS UAU (mixed)
RNA 1: B1 RNA 1
RNA 2: B1 RNA 2 with G28U, U29G, C53A, A54U
B23: target 1 MT 5'PFS GUA 3'PFS GUU (mixed)
RNA 1: B1 RNA 1
RNA 2: B1 RNA 2 with U27G, G28U, U29A, U52G, C53U, A54U
B24: target 1 MT 5'PFS GGA 3'PFS CAA (mixed)
RNA 1: B1 RNA 1
RNA 2: B1 RNA 2 with U27G, U29A, U52C, C53A
B25: target 1 MT 5'PFS UGU 3'PFS UCC (mixed)
RNA 1: B1 RNA 1
RNA 2: B1 RNA 2 with A54C
B26: target 1 MT 5'PFS GGA 3'PFS CAG (mixed)
RNA 1: B1 RNA 1
RNA 2: B1 RNA 2 with U27G, U29A, U52C, C53A, A54G
B27: target 1 MT 5'PFS CUC 3'PFS UUG (mixed)
RNA 1: B1 RNA 1
RNA 2: B1 RNA 2 with U27C, G28U, U29C, C53U, A54G
B28: target 1 MT 5'PFS CUC 3'PFS UUA (mixed)
RNA 1: B1 RNA 1
RNA 2: B1 RNA 2 with U27C, G28U, U29C, C53U
B29: target 1 MT 5'PFS CUC 3'PFS CCU (mixed)
RNA 1: B1 RNA 1
RNA 2: B1 RNA 2 with U27C, G28U, U29C, U52C, A54U
B30: target 1 MT 5'PFS GCG 3'PFS CGG (mixed)
RNA 1: B1 RNA 1
RNA 2: B1 RNA 2 with U27G, G28C, U29G, U52C, C53G, A54G
B31: target 1 MT 5'PFS ACU 3'PFS CUA (mixed)
RNA 1: B1 RNA 1
RNA 2: B1 RNA 2 with U27A, G28C, U52C, C53U
B32: target 1 MT 5'PFS CUC 3'PFS UUC (mixed)
RNA 1: B1 RNA 1
RNA 2: B1 RNA 2 with U27C, G28U, U29C, C53U, A54C
B33: target 1 MT 5'PFS CUU 3'PFS AUA (mixed)
RNA 1: B1 RNA 1
RNA 2: B1 RNA 2 with U27C, G28U, U52A, C53U
B34: target 1 MT 5'PFS UCC 3'PFS AUG (mixed)
RNA 1: B1 RNA 1
RNA 2: B1 RNA 2 with G28C, U29C, U52A, C53U, A54G
B35: target 1 MT 5'PFS UCC 3'PFS AUC (mixed)
RNA 1: B1 RNA 1
RNA 2: B1 RNA 2 with G28C, U29C, U52A, C53U, A54C
B36: target 1 MT 5'PFS UGU 3'PFS UCG (mixed)
RNA 1: B1 RNA 1
RNA 2: B1 RNA 2 with A54G
B37: target 1 MT 5'PFS CCG 3'PFS UGC (mixed)
RNA 1: B1 RNA 1
RNA 2: B1 RNA 2 with U27C, G28C, U29G, C53G, A54C
B38: target 1 MT 5'PFS CCG 3'PFS UGU (mixed)
RNA 1: B1 RNA 1
RNA 2: B1 RNA 2 with U27C, G28C, U29G, C53G, A54U
B39: target 1 MT 5'PFS CAU 3'PFS AUA (mixed)
RNA 1: B1 RNA 1
RNA 2: B1 RNA 2 with U27C, G28A, U52A, C53U
B40: target 1 MT 5'PFS UUG 3'PFS UAG (mixed)
RNA 1: B1 RNA 1
RNA 2: B1 RNA 2 with G28U, U29G, C53A, A54G

Each binder was assayed against T1, EsCas13d, nuclease-dead (assay: crRNA (strand 1, pre-loaded); Mg2+; 40 mM Tris-HCl pH 7.5, 150 mM NaCl, 6 mM MgCl2, 1 mM DTT, 0.1% Tween-20, 0.2 mg/ml BSA; 25 C; 10 min per concentration, then washed). Settings: tags: His6-TwinStrep-SUMO cleaved; N-terminal SNAP kept (SNAP-Surface 488); label: 3' end held by stalled T7 RNA polymerase.
With B1 the Kd was 47.5 ± 13 nM.
B2 was tested, and the Kd was 38 ± 13 nM.
Work on B3 yielded a Kd of 11.3 ± 0.8 nM.
Binder B4 has a Kd of about 85 nM.
In the case of B5, the Kd is reported as 28 ± 10 nM.
Work on B6 yielded a Kd of 13.7 ± 5.05 nM.
Binder B7 has a Kd of about 21 nM.
B8 showed a Kd of 14.8 ± 0.95 nM.
B9 showed a Kd of about 40 nM.
With B10 the Kd was about 80 nM.
In the case of B11, the Kd is reported as 9.35 ± 1 nM.
Binder B12 has a Kd of 34 ± 10.5 nM.
With B13 the Kd was 42.5 ± 13.5 nM.
B14 showed a Kd of 49.5 ± 17 nM.
B15 gave a Kd of about 70 nM.
B16 was tested, and the Kd was 80 ± 40 nM.
B17 showed a Kd of 8.5 ± 0.95 nM.
In the case of B18, the Kd is reported as 21.4 ± 1 nM.
Binder B19 has a Kd of 7.25 ± 2 nM.
Binder B20 has a Kd of 78 ± 21 nM.
For B21, the Kd was 35.5 ± 15 nM.
B22 was tested, and the Kd was 16.9 ± 2.45 nM.
B23 showed a Kd of 11.4 ± 1.05 nM.
B24 gave a Kd of 52 ± 16 nM.
Work on B25 yielded a Kd of 39 ± 10.5 nM.
Work on B26 yielded a Kd of 24.5 ± 5 nM.
B27 gave a Kd of about 105 nM.
With B28 the Kd was about 43.5 nM.
Work on B29 yielded a Kd of about 40 nM.
B30 was tested, and the Kd was 67.5 ± 27.5 nM.
With B31 the Kd was about 34.5 nM.
With B32 the Kd was about 55 nM.
B33 showed a Kd of about 50.5 nM.
B34 showed a Kd of 39 ± 17 nM.
For B35, the Kd was 43.5 ± 17.5 nM.
For B36, the Kd was 61 ± 20.5 nM.
With B37 the Kd was 2.6 ± 0.75 nM.
For B38, the Kd was 9.95 ± 2.7 nM.
In the case of B39, the Kd is reported as about 70 nM.
With B40 the Kd was 47.5 ± 10.5 nM.
